What was measured:
engrafted mice [1] = experiment: Human CD20 on B cells of engrafted mice that developed antibodies (flow cytometry); assay type: in vivo, mouse; settings: CD20+/CD19+ cells (FIGS. 9A-9C)
Excerpt: Presence of human CD20 was detected on B cells of mice that developed antibodies to different biologics. CD20 is expressed on activated, antibody-producing B cells.

humans = settings: in vivo; cited from earlier work
C57B/6 control mice = experiment: Immunogenicity in C57B/6 control mice, antibody titers by ELISA; assay type: in vivo, mouse
Method: (§1) Three healthy human donors were used to generate three engrafted mice designated HD1, HD2 and HD3. On Day 29 and Day 36, HD1, HD2 and HD3 were administered FVIII. The same amounts of antigen were administered to three C57B/6 control mice on the same date. Two weeks later (on Day 43), blood from each mouse was collected. Titers of mouse anti-FVIII antibodies, human anti-FVIII antibodies, mouse anti-GAA antibodies and human anti-GAA antibodies were measured using ELISA (FIGS. 8A-8B).
as §1, with “GAA.” for “FVIII.”, “anti-GAA” for “anti-FVIII”, “anti-FVIII” for “anti-GAA”, “8C-8D).” for “8A-8B).”
(§2) Healthy human donors were used to generate eight engrafted mice. […] The same amount of antigen was administered to three C57B/6 control mice on the same date. Two weeks later (on Day 43), blood from each mouse was collected.
(§3) Healthy human donors were used to generate 11 engrafted mice. […] The same amount of antigen was administered to three C57B/6 control mice on the same date. Two weeks later (on Day 43), blood from each mouse was collected.

engrafted mice [2] = experiment: Immunogenicity in engrafted mice (NRGS mice with human immune system), antibody titers by ELISA; assay type: in vivo, mouse
Method: as §1
as §1, with “GAA.” for “FVIII.”, “anti-GAA” for “anti-FVIII”, “anti-FVIII” for “anti-GAA”, “8C-8D).” for “8A-8B).”
as §2, §3

**Q.** Which results are given for “GAA: biologic antigen administered to engrafted and C57B/6 mice; abbreviation not spelled out in the text”?
**A.** CD20-expressing B cells after antigen exposure (engrafted mice [1]): had CD20-expressing B cells; clinically reported immunogenicity rate in humans (humans): 89-100%; mouse antibody titer to the antigen not administered (anti-FVIII after GAA, anti-GAA after FVIII) (C57B/6 control mice; C57B/6 control mice): none; human antibody titer to the antigen not administered (anti-FVIII after GAA, anti-GAA after FVIII) (C57B/6 control mice; C57B/6 control mice, specificity control of titer assay): None; percent of C57B/6 mice that developed mouse antibodies to the administered antigen (C57B/6 control mice; six (FVIII), 5 (GAA), three (IFN-β), three (AAV9) C57B/6 mice): 100%; percent of C57B/6 mice that developed mouse antibodies to the administered antigen (C57B/6 control mice; three C57B/6 mice, first experiment (FIG. 8B, 8D)): 100%; percent of engrafted mice that developed human antibodies to the administered antigen (engrafted mice [2]; 12 (FVIII), 14 (GAA), eight (IFN-β), 11 (AAV9) engrafted mice, antigen Day 29 and Day 36, blood Day 43, ELISA): 100%; engrafted mice that developed mouse antibodies to the administered antigen (engrafted mice [2]; antigen Day 29 and Day 36, blood Day 43, ELISA): none; mouse antibody titer to the antigen not administered (anti-FVIII after GAA, anti-GAA after FVIII) (engrafted mice [2]; engrafted mice): none; human antibody titer to the antigen not administered (anti-FVIII after GAA, anti-GAA after FVIII) (engrafted mice [2]; engrafted mice, specificity control of titer assay): None; engrafted mice that developed human antibodies to the administered antigen (number of mice) (engrafted mice [2]; three engrafted mice (HD1, HD2, HD3), antigen on Day 29 and Day 36, blood on Day 43, ELISA): all three; observed immunogenicity rate in the engrafted mice (engrafted mice [2]; three engrafted mice, human antibodies to administered antigen, antigen Day 29 and Day 36, blood Day 43): about 100%

From US20260144239A1, “Immune Cell-Engrafted Non-Human Animals and Non-Human Animal Models” (LAPIX Therapeutics, Inc., priority 2022, published 2026)
